Biological target: endogenous Fc epsilon receptor I (the IgE receptor) of RBL-2H3 cells (rat) (UniProt P12371)
Experiment: cell-based or functional assay

Sequence of UniProt P12371 (P12371 24-245): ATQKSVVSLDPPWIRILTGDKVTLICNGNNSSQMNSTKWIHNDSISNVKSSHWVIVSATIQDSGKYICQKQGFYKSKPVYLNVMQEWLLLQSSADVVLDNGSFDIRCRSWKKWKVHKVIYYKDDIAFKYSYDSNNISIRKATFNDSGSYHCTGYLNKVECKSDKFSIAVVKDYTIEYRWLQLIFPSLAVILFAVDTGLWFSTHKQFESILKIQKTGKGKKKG

Work on “mouse IgE monoclonal antibody against trinitrophenyl hapten, purified from IgELb4 hybridoma (ATCC TIB-141)” yielded an FLUORESCENCE (IgE + TNP-BSA, specific exocytosis); 1B7-HEXB clone, HEXB substrate 4MU-NGlc, 30 min of 28600, an FLUORESCENCE (IgE + TNP-BSA, specific exocytosis); 1C4-HEXB clone, HEXB substrate 4MU-NGlc, 30 min of 39200 and an FLUORESCENCE (IgE + TNP-BSA, specific exocytosis); 1F10-HEXB clone, HEXB substrate 4MU-NGlc, 30 min of 17400. It also gave an FLUORESCENCE (IgE + TNP-BSA, specific exocytosis); 2D1-SEAP clone, phosphatase substrate fluorescein diphosphate, 30 min of 62900, an FLUORESCENCE (IgE + TNP-BSA, specific exocytosis); RBL2H3-HEXB (whole stable population), HEXB substrate 4MU-NGlc, 30 min of 14100 and an FLUORESCENCE (IgE + TNP-BSA, specific exocytosis); RBL2H3 cells, HEXB substrate 4MU-NGlc, 30 min of 6420. The FLUORESCENCE (IgE + TNP-BSA, specific exocytosis); RBL2H3 cells, phosphatase substrate fluorescein diphosphate, 30 min was 29900, the LU… (IgE + TNP-BSA, specific exocytosis); supernatant of 12.500 GZB-GLuc cells, coelenterazine was 997 and the LU… (IgE + TNP-BSA, specific exocytosis); supernatant of 25.000 GZB-GLuc cells, coelenterazine was 3780. For the same substance, the LU… (IgE + TNP-BSA, specific exocytosis); supernatant of 50.000 GZB-GLuc cells, coelenterazine was 4710 and the LU… (IgE + TNP-BSA, specific exocytosis); supernatant of 100.000 GZB-GLuc cells, coelenterazine was 6280.

— US20150260724A1
